The assay deals with T1, HLA-B*44:02 (human).
T1 construct: Peptide-receptive MHC class I monomer made by UV cleavage of a UV-sensitive ligand
The assay is described as follows: UV ligand exchange ELISA; exchange yield grade. The source says:
Candidate peptides for T cell based therapies according to the present invention were further tested for their MHC binding capacity (affinity). The individual peptide-MHC complexes were produced by UV-ligand exchange, where a UV-sensitive peptide is cleaved upon UV-irradiation, and exchanged with the peptide of interest as analyzed. Only peptide candidates that can effectively bind and stabilize the peptide-receptive MHC molecules prevent dissociation of the MHC complexes. To determine the yield of the exchange reaction, an ELISA was performed based on the detection of the light chain (β2m) of stabilized MHC complexes. The assay was performed as generally described in Rodenko et al. (Rodenko et al., 2006).
96 well MAXISorp plates (NUNC) were coated over night with 2 ug/ml streptavidin in PBS at room temperature, washed 4× and blocked for 1 h at 37° C. in 2% BSA containing blocking buffer. Refolded HLA-A*02:01/MLA-001 monomers served as standards, covering the range of 15-500 ng/ml. Peptide-MHC monomers of the UV-exchange reaction were diluted 100-fold in blocking buffer. Samples were incubated for 1 h at 37° C., washed four times, incubated with 2 ug/ml HRP conjugated anti-β2m for 1 h at 37° C., washed again and detected with TMB solution that is stopped with […]. Absorption was measured at 450 nm. Candidate peptides that show a high exchange yield (preferably higher than 50%, most preferred higher than 75%) are generally preferred for a generation and production of antibodies or fragments thereof, and/or T cell receptors or fragments thereof, as they show sufficient avidity to the MHC molecules and prevent dissociation of the MHC complexes.
(In general: In an ELISA, binding on a coated surface is turned into a signal by an enzyme label.)

Some results are limits rather than exact numbers.

B1: AELLAKELY (peptide)
peptide: AELLAKELY
In turn, B1 displayed a peptide exchange yield of 20 to 50%.

B2: GELGGSVTI (peptide)
peptide: GELGGSVTI
The molecule B2 had a peptide exchange yield of 50 to 75%.

B3: VEIAEAIQL (peptide)
peptide: VEIAEAIQL
Turning to B3, the peptide exchange yield was in the range of 50 to 75%.

B4: EENPGKFLF (peptide)
peptide: EENPGKFLF
On to B4, for which the peptide exchange yield is 50 to 75%.

B5: AENAVSNLSF (peptide)
peptide: AENAVSNLSF
Turning to B5, the peptide exchange yield fell in the range of 20 to 50%.

B6: NEVLASKY (peptide)
peptide: NEVLASKY
Take B6: the peptide exchange yield was 10 to 20%.

B7: AEPGPVITW (peptide)
peptide: AEPGPVITW
As to B7, the peptide exchange yield lay within 50 to 75%.

B8: NEFPVIVRL (peptide)
peptide: NEFPVIVRL
As for B8, the peptide exchange yield was in the range of 50 to 75%.

B9: HEIDGKALFL (peptide)
peptide: HEIDGKALFL
The molecule B9 registered a peptide exchange yield of 20 to 50%.

B10: TEGKRYFTW (peptide)
peptide: TEGKRYFTW
In turn, B10 yielded a peptide exchange yield of 50 to 75%.

B11: EEWMGLLEY (peptide)
peptide: EEWMGLLEY
Regarding B11, the peptide exchange yield is over 75%.

B12: SQAPAARAF (peptide)
peptide: SQAPAARAF
Turning to B12, the peptide exchange yield lay within 20 to 50%.

B13: SENEQRRMF (peptide)
peptide: SENEQRRMF
B13 displayed a peptide exchange yield of 50 to 75%.

B14: SEYADTHYF (peptide)
peptide: SEYADTHYF
B14 registered a peptide exchange yield of 50 to 75%.

B15: GEGAYGKVF (peptide)
peptide: GEGAYGKVF
Regarding B15, the peptide exchange yield was over 75%.

B16: EENKPGIVY (peptide)
peptide: EENKPGIVY
In the case of B16, the peptide exchange yield lay within 20 to 50%.

B17: AEYKGRVTL (peptide)
peptide: AEYKGRVTL
In the case of B17, the peptide exchange yield was over 75%.

B18: EYDLKWEF (peptide)
peptide: EYDLKWEF
Consider B18, for which the peptide exchange yield fell in the range of 20 to 50%.

B19: EEGDTLLHLF (peptide)
peptide: EEGDTLLHLF
B19 had a peptide exchange yield of 50 to 75%.

B20: GENDRLNHTY (peptide)
peptide: GENDRLNHTY
Molecule B20 gave a peptide exchange yield of 20 to 50%.

B21: KEFEQVPGHL (peptide)
peptide: KEFEQVPGHL
B21 had a peptide exchange yield of 20 to 50%.

B22: KELPGVKKY (peptide)
peptide: KELPGVKKY
Consider B22, for which the peptide exchange yield is 20 to 50%.

B23: QENMQIQSF (peptide)
peptide: QENMQIQSF
For B23, the peptide exchange yield is 50 to 75%.

B24: SESKTVVTY (peptide)
peptide: SESKTVVTY
Turning to B24, the peptide exchange yield lay within 50 to 75%.

B25: AEIKQTEEKY (peptide)
peptide: AEIKQTEEKY
On to B25, for which the peptide exchange yield fell in the range of 20 to 50%.

B26: EEFETIERF (peptide)
peptide: EEFETIERF
In turn, B26 came in with a peptide exchange yield of 20 to 50%.

B27: GENEDNRIGL (peptide)
peptide: GENEDNRIGL
Regarding B27, the peptide exchange yield lay in the range of 20 to 50%.

B28: VELDLQRSV (peptide)
peptide: VELDLQRSV
The molecule B28 yielded a peptide exchange yield of 20 to 50%.

B29: DEAQARAAF (peptide)
peptide: DEAQARAAF
B29 showed a peptide exchange yield of 20 to 50%.

B30: RENQVLGSGW (peptide)
peptide: RENQVLGSGW
B30 had a peptide exchange yield of 50 to 75%.

B31: NEIKVYITF (peptide)
peptide: NEIKVYITF
As to B31, the peptide exchange yield was in the range of 50 to 75%.

B32: YEYDLKWEF (peptide)
peptide: YEYDLKWEF
Take B32: the peptide exchange yield lay within 50 to 75%.

B33: TEIFKEHNF (peptide)
peptide: TEIFKEHNF
B33 returned a peptide exchange yield of 20 to 50%.

B34: KEVPRSYEL (peptide)
peptide: KEVPRSYEL
On to B34, for which the peptide exchange yield lay within 20 to 50%.

B35: TEYPVFVY (peptide)
peptide: TEYPVFVY
For the molecule B35, the peptide exchange yield is 10 to 20%.

B36: VEDGLFHEF (peptide)
peptide: VEDGLFHEF
B36 yielded a peptide exchange yield of 50 to 75%.

B37: AEHNFVAKA (peptide)
peptide: AEHNFVAKA
On to B37, for which the peptide exchange yield fell in the range of 50 to 75%.

B38: EEVTDRSQL (peptide)
peptide: EEVTDRSQL
B38: the peptide exchange yield fell in the range of 20 to 50%.

B39: REYEYDLKWEF (peptide)
peptide: REYEYDLKWEF
Take B39: the peptide exchange yield is 50 to 75%.

B40: TDKSFPNAY (peptide)
peptide: TDKSFPNAY
In turn, B40 displayed a peptide exchange yield of 10 to 20%.

B41: EEETILHFF (peptide)
peptide: EEETILHFF
As for B41, the peptide exchange yield was 20 to 50%.

B42: KEYDFGTQL (peptide)
peptide: KEYDFGTQL
Regarding B42, the peptide exchange yield lay in the range of 20 to 50%.

B43: GELPAVRDL (peptide)
peptide: GELPAVRDL
As to B43, the peptide exchange yield was 20 to 50%.

B44: SEKETVAYF (peptide)
peptide: SEKETVAYF
As to B44, the peptide exchange yield was in the range of 50 to 75%.

B45: REYNEYENI (peptide)
peptide: REYNEYENI
On to B45, for which the peptide exchange yield lay in the range of 20 to 50%.

B46: SESTFDRTF (peptide)
peptide: SESTFDRTF
For the molecule B46, the peptide exchange yield was in the range of 50 to 75%.

B47: GEIKEPLEI (peptide)
peptide: GEIKEPLEI
As for B47, the peptide exchange yield was 20 to 50%.

B48: KEIGAAVQAL (peptide)
peptide: KEIGAAVQAL
Turning to B48, the peptide exchange yield lay in the range of 50 to 75%.

B49: REYEHYWTEL (peptide)
peptide: REYEHYWTEL
B49: the peptide exchange yield is 50 to 75%.

B50: AEPLVGQRW (peptide)
peptide: AEPLVGQRW
On to B50, for which the peptide exchange yield is 50 to 75%.

B51: FEVESLFQKY (peptide)
peptide: FEVESLFQKY
In turn, B51 returned a peptide exchange yield of 50 to 75%.

B52: EENGEVKEL (peptide)
peptide: EENGEVKEL
For B52, the peptide exchange yield was in the range of 20 to 50%.

B53: GELLGRQSF (peptide)
peptide: GELLGRQSF
As to B53, the peptide exchange yield lay in the range of 50 to 75%.

B54: AQNLSIIQY (peptide)
peptide: AQNLSIIQY
For B54, the peptide exchange yield was in the range of 20 to 50%.

B55: SEDLAVHLY (peptide)
peptide: SEDLAVHLY
With B55, the peptide exchange yield fell in the range of 20 to 50%.

B56: EEPAFNVSY (peptide)
peptide: EEPAFNVSY
In turn, B56 showed a peptide exchange yield of 20 to 50%.

B57: QEIQSLLTNW (peptide)
peptide: QEIQSLLTNW
For the molecule B57, the peptide exchange yield was in the range of 50 to 75%.

B58: SESLPKEAF (peptide)
peptide: SESLPKEAF
Turning to B58, the peptide exchange yield lay in the range of 20 to 50%.

B59: SEYSHLTRV (peptide)
peptide: SEYSHLTRV
B59 registered a peptide exchange yield of 20 to 50%.

B60: EVDASIFKAW (peptide)
peptide: EVDASIFKAW
As to B60, the peptide exchange yield lay within 20 to 50%.

B61: EEEHGKGREY (peptide)
peptide: EEEHGKGREY
On to B61, for which the peptide exchange yield lay within 20 to 50%.
